Test results published in US20030088075A1 (Kyowa Kirin, published 2003).
Substitutions are numbered along the chain they refer to. Blank lines part the entries; values can stand above or below the binder they belong to.

Assays:
[1] = target: T1, human VEGF receptor Flt-1 expressed on cells (human, UniProt P17948 27-1338); assay: purified antibody; inhibition of 125I-VEGF binding to NIH3T3-Flt-1 cells
T1 construct: whole, on cells; also called NIH3T3-Flt-1; human VEGF receptor Flt-1 expression cells
Method: PBS containing 1% bovine serum albumin (BSA) was dispensed in 100 μl portions into wells of a 96 well MultiScreen-HV Plate (manufactured by Millipore), the reaction was carried out at room temperature for 1 hour to block the active groups in the wells and then NIH3T3-Flt-1 cells suspended in 1% BSA-PBS containing 0.05% NaN₃ were dispensed in 5×10⁴ cells/well portions. After washing with 1% BSA-PBS, a purified monoclonal antibody (0.01 to 7.29 μg/ml) was dispensed in 50 μl/well portions and then 3 ng/ml of ¹²⁵I-labeled human VEGF (manufactured by Amersham) was dispensed in 50 μl/well portions and the reaction was carried out under cooling for 2 hours. After washing with PBS, the wells were dried at 50° C., and Microscinti-0 (manufactured by Packard) was dispensed in 30 μl/well portions to measure the radioactivity of the ¹²⁵I-labeled human VEGF linked to each well using Top Count (manufactured by Packard).

[2] = target: T2, soluble human VEGF receptor Flt-1 7N (human, UniProt P17948 27-750); assay: purified antibody; inhibition of 125I-VEGF binding to coated Flt-1 7N
T2 construct: range 1-750; Secreted from baculovirus-infected High Five insect cells and purified on heparin-Sepharose; also called Flt 7N; soluble human Flt-1 7N
Method: (§1) Methanol was dispensed in 100 μl portions into wells of a 96 well MultiScreen-IP Plate (manufactured by Millipore) to give hydrophilic nature to the PVDF membrane on the bottom of the plate. After washing with water, the soluble human VEGF receptor Flt-1 7N diluted with PBS to a concentration of 1.6 μg/ml was dispensed in 50 μl/well portions and then allowed to stand overnight at 4° C. for its adsorption. After washing, PBS containing 1% bovine serum albumin (BSA) is dispensed in 50 μl/well portions and the reaction was carried out at room temperature for 1 hour to block the remained active groups. After washing with PBS, each hybridoma culture supernatant or a purified monoclonal antibody diluted with 1% BSA-PBS containing 0.5 M NaCl (0.01 to 7.29 μg/ml) was dispensed in 50 μl/well portions and then 3 ng/ml of ¹²⁵I-labeled human VEGF (manufactured by Amersham) was dispensed in 50 μl/well portions, subsequently carrying out the reaction at room temperature for 1.5 hours. After washing with 0 05% Tween-PBS, the wells were dried at 50° C., and Microscinti-0 (manufactured by Packard) was dispensed in 30 μl/well portions to measure the radioactivity of the ¹²⁵I-labeled human VEGF linked to each well using Top Count (manufactured by Packard).

[3] = target: T2, soluble human VEGF receptor Flt-1 7N; assay: hybridoma culture supernatant; inhibition of 125I-VEGF (3 ng/ml) binding to coated Flt-1 7N
Method: as §1

[4] = target: T3, soluble human VEGF receptor KDR 7N (human, UniProt P35968 20-757); assay: ELISA, antigen coated at 4 µg/ml
T3 construct: range 20-757; Purity 70 to 80%; not shown: two amino acid residues derived from a linker
Method: First, the reactivity of anti-human VEGF receptor Fit-i mouse monoclonal antibodies KM1732 and KM1750 and anti-human VEGF receptor Flt-1 human chimeric antibodies KM2532 and KM2550 was compared using an immunoassay method. Each of Flt-1 7N, Flt-1 3N, Flt-1 2N, Flt-1 7N.K2 and KDR 7N diluted to 4 μg/ml with PBS was dispensed in 50 μl portions into wells of a 96 well plate for EIA (manufactured by Greiner) and allowed to stand overnight at 4° C. for its adsorption. After washing the plate with PBS, 100 μl of 1% BSA-PBS was added to each well, and the remaining active groups was blocked by carrying out the reaction at room temperature for 1 hour. After discarding 1% BSA-PBS, each of the purified anti-human VEGF receptor Flt-1 mouse monoclonal antibodies KM1732 and KM1750 or purified anti-human VEGF receptor Flt-1 human chimeric antibodies KM2532 and KM2550, having a concentration of from 0.1 μg/ml, was dispensed in 50 μl portions into the resulting wells to carry out the reaction at room temperature for 1 hour.

[5] = target: T3, soluble human VEGF receptor KDR 7N; assay: enzyme immunoassay, antigen coated at 10 µg/ml
Description: Next, in order to examine binding specificity of anti-human VEGF receptor Flt-1 human CDR-grafted antibodies KM8550, KM8551, KM8552, KM8553, KM8554 and KM8555 and anti-human VEGF receptor Flt-1 human chimeric antibody KM2550, their reactivity for five soluble human VEGF receptor derivative proteins Flt-1 7N, Flt-1 3N, Flt-1 2N (WO 98/22616), Flt-1 7N.K2 [2(6-5) of Example 2] and KDR 7N [2(6-5) of Example 2] was examined using an enzyme immunoassay. Concentration of each soluble human VEGF receptor derivative protein to be adsorbed on a 96 well plate for EIA was fixed to 10 μg/ml (3-fold dilution), and the antibody concentration was fixed to 5 μg/ml.

T3 sequence (P35968 20-757): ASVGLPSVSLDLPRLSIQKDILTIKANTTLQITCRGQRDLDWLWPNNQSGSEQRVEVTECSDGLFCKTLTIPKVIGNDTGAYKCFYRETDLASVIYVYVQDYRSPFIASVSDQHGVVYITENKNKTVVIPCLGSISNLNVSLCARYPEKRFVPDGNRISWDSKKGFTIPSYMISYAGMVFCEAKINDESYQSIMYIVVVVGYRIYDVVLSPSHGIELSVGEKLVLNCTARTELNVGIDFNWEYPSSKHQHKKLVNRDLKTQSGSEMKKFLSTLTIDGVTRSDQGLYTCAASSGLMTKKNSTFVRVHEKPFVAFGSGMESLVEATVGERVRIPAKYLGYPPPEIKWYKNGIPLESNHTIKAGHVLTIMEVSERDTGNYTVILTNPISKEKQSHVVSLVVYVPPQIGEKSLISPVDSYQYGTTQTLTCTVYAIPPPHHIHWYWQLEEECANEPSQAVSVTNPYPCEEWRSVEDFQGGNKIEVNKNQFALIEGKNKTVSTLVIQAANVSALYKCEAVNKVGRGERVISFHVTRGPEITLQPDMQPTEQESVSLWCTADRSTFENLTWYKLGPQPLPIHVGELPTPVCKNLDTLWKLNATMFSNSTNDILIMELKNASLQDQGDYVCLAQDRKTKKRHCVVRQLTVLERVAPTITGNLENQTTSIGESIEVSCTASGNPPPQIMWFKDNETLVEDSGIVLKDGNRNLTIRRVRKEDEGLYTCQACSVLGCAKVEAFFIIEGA
T2 sequence (P17948 27-750 limits assumed, form in doubt): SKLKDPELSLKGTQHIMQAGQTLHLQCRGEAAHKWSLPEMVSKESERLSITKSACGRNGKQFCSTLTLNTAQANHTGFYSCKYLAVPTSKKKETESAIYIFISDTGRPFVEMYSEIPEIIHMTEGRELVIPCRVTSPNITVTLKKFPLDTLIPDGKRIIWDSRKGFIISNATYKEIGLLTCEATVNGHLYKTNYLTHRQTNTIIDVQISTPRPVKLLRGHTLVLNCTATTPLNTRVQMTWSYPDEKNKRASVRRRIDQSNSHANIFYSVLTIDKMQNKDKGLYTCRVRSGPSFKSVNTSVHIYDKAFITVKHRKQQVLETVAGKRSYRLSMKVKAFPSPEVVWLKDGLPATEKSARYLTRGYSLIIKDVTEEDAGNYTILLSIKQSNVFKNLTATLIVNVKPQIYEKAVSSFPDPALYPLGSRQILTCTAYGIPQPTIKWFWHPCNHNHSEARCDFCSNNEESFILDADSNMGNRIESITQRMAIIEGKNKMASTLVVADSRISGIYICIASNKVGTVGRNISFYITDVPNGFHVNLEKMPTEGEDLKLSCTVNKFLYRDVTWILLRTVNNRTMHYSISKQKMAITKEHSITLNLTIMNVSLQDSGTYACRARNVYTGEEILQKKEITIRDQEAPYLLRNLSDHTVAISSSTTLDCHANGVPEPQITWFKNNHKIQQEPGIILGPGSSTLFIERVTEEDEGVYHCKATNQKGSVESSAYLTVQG
T1 sequence (P17948 27-1338): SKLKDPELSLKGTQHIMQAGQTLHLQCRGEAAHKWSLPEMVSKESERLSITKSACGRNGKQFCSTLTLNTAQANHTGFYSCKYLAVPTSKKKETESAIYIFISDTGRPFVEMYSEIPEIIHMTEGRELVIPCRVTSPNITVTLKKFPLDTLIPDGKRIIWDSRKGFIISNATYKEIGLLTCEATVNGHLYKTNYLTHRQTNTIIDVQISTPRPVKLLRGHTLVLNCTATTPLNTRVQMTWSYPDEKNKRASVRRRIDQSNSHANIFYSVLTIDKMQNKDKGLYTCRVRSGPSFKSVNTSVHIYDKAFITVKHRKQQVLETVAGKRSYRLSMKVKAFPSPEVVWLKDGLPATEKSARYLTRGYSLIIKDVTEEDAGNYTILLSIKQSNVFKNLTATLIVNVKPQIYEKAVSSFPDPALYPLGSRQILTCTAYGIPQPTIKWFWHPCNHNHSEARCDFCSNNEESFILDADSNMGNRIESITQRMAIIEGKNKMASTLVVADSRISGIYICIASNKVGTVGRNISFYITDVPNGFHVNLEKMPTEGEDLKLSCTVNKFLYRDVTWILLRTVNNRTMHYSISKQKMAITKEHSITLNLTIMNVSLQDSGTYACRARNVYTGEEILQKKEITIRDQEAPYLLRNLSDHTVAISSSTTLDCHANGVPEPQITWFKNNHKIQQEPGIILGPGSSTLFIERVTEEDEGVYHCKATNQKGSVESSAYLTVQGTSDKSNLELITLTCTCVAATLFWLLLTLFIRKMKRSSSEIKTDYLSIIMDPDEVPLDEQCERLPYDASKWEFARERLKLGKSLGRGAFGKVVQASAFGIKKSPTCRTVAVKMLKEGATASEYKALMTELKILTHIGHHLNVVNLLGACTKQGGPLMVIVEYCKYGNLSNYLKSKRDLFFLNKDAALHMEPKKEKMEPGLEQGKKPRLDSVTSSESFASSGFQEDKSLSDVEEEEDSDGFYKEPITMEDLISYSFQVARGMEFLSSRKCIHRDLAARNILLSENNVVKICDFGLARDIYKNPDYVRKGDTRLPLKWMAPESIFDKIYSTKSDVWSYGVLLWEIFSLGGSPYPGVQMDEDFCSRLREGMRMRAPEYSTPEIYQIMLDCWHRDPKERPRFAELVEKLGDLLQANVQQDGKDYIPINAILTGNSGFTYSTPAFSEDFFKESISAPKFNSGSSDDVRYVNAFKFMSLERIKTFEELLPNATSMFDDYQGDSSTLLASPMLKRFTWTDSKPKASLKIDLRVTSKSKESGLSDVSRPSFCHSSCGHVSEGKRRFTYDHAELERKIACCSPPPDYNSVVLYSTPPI

- IC50 [1]: 0.041 µg/mL
- IC50 [2]: 2 µg/mL
- inhibition ratio [3]: 66.3%
- binding result [4]: no binding (tested: 0.1 µg/ml antibody)
B1: anti-human VEGF receptor Flt-1 mouse monoclonal antibody KM1750 (antibody, mouse IgG2b, V domains shown)
VH: QAFLQQSGAELVRPGASVKMSCKASGYTFINYNMHWVKQTPRQGLEWIGAIFPGNGFTSYNQKFKGKATLTVDKSSSTVYMQLRSLTSEDSAVYFCARDGDYYFDYWGQGTTLTVSS
VL: QIVLTQSPAIMSASLGEEITLTCSASSSVSYMHWYQQKSGTSPKLLIYRTSNLASGVPFRFSGSGSGTFYSLTISSVEAEDAADYYCHQWSMYTFGGGTKLEIK
notes: mouse IgG2b; hybridoma FERM BP-5700; Used labeled with biotin on HUVEC; also called biotinated KM1750

- binding result [4]: no binding (tested: 0.1 µg/ml antibody)
B2: anti-human VEGF receptor Flt-1 human chimeric antibody KM2550 (antibody, V domains shown)
VH: B1 VH
VL: B1 VL
notes: V regions of KM1750 joined to the human antibody C regions of vector pKANTEX93; IgG type; also called p42550 [sic]

- IC50 [1]: 0.05 µg/mL
- IC50 [2]: 1.1 µg/mL
- inhibition ratio [3]: 83.1%
- binding result [4]: no binding (tested: 0.1 µg/ml antibody)
B3: anti-human VEGF receptor Flt-1 mouse monoclonal antibody KM1732 (antibody, mouse IgG1, V domains shown)
VH: QGQMQQSGAELVKPGASVKLSCKPSGFTFSSNYISWLKQKPGQSLEWIAWIYAGTGDASYNQKFTAKAHVTVDTSSSTAYMQLSSLTTEDSAIYYCARHGGDGYWFAYWGQGTLVTVSA
VL: QLVLTQSPAIMSASQGEKVTMTCSASSSVSYMHWYQQKSGTSPKRWIYDTSKLPSGVPARFSGSGSGTSYSLTISSMEAEDAATYYCQQWSSNPPTFGAGTKLELK
notes: mouse IgG1; hybridoma FERM BP-5698

- binding result [4]: no binding (tested: 0.1 µg/ml antibody)
B4: anti-human VEGF receptor Flt-1 human chimeric antibody KM2532 (antibody, V domains shown)
VH: B3 VH
VL: B3 VL
notes: V regions of KM1732 joined to the human antibody C regions of vector pKANTEX93 (WO 97/10354); IgG type of about 150 kDa; Expressed in YB2/0 cells; also called p42532 [sic]

- binding result [5]: no binding (tested: 5 µg/ml antibody)
B5: anti-human VEGF receptor Flt-1 human CDR-grafted antibody KM8550 (antibody, V domains shown)
VH: QVQLVQSGAEVKKPGASVKVSCKASGYTFINYNMHWVRQAPGQGLEWMGAIFPGNGFTSYNQKFKGRVTITVDKSTSTAYMELSSLRSEDTAVYYCARDGDYYFDYWGQGTLVTVSS
VL: DIQMTQSPSSLSASVGDRVTITCSASSSVSYMHWYQQKPGKAPKLLIYRTSNLASGVPSRFSGSGSGTDFTLTISSLQPEDFATYYCHQWSMYTFGQGTKVEIK
notes: also called pKANTEX1750HV0LV0(I)

- binding result [5]: no binding (tested: 5 µg/ml antibody)
B6: anti-human VEGF receptor Flt-1 human CDR-grafted antibody KM8551 (antibody, V domains shown)
VH: B5 VH
VL: DIVMTQSPDSLAVSLGERATINCSASSSVSYMHWYQQKPGQPPKLLIYRTSNLASGVPDRFSGSGSGTDFTLTISSLQAEDVAVYYCHQWSMYTFGQGTKVEIK
notes: also called pKANTEX1750HV0LV0(IV)

- binding result [5]: no binding (tested: 5 µg/ml antibody)
B7: anti-human VEGF receptor Flt-1 human CDR-grafted antibody KM8553 (antibody, V domains shown)
VH: B5 VH with E82Q, S84R, Y95F
VL: B6 VL
notes: also called pKANTEX1750HV3LV0(IV)

- binding result [5]: no binding (tested: 5 µg/ml antibody)
B8: anti-human VEGF receptor Flt-1 human CDR-grafted antibody KM8552 (antibody, V domains shown)
VH: B5 VH with E82Q, S84R, Y95F
VL: B5 VL
notes: also called pKANTEX1750HV3LV0(I)

- binding result [5]: no binding (tested: 5 µg/ml antibody)
B9: anti-human VEGF receptor Flt-1 human CDR-grafted antibody KM8554 (antibody, V domains shown)
VH: B5 VH
VL: B5 VL with D17E, R18E, D69F, F70Y
notes: also called pKANTEX1750HV0LV4

- binding result [5]: no binding (tested: 5 µg/ml antibody)
B10: anti-human VEGF receptor Flt-1 human CDR-grafted antibody KM8555 (antibody, V domains shown)
VH: B5 VH with E82Q, S84R, Y95F
VL: B5 VL with D17E, R18E, D69F, F70Y
notes: also called pKANTEX1750HV3LV4
